Assay results published in patent US7041458B2, “Methods and reagents for determining protein S” (priority 1996, dated 2006).

What was measured:
[1] = biological target: T1, protein S (Homo sapiens, UniProt P07225); experiment: Binding of protein S to the binding site on C4BPβ in the presence of physiological calcium
T1 sequence (P07225 42-676): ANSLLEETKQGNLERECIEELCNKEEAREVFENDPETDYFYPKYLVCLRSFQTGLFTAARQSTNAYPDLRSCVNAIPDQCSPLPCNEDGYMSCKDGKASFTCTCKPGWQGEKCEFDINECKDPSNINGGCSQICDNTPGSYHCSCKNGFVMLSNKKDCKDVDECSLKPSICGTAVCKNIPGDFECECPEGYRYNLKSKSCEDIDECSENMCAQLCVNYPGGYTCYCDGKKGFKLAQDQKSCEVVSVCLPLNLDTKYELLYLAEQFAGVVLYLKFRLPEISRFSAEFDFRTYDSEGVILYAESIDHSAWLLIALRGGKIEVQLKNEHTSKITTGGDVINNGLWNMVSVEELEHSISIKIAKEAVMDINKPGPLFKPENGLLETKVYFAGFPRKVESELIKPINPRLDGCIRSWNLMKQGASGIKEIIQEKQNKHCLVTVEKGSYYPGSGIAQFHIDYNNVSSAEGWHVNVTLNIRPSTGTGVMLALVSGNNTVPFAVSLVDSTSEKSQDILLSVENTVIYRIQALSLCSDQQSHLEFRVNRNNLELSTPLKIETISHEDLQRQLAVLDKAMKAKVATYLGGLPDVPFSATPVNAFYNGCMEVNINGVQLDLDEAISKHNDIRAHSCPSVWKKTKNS
Method: Even though it is possible to design C4BP-like molecules which could be very efficient as catching ligands in assays for free protein S, suitable embodiments of the invention are based on use of the entire C4BP molecule or, rather, C4BP species comprising the β-chain, i.e. C4BPβ, as ligands in such assays. Since the binding site on C4BPβ binds protein S with very high affinity (KD=0.1 nM) in the presence of physiological calcium concentrations, the association rate constant in the presence of calcium ions being high (almost 10^5 M^−1 s−^1) and the dissociation rate constant being low (approximately 5×10^−4 s−^1), C4BPβ (containing an unoccupied protein S binding site on the β-chain) is a highly specific and efficient ligand for free protein S and is able to specifically bind to free protein S in a solution containing both free protein S and PS:C4BP complexes.

[2] = biological target: T2, free protein S (Homo sapiens, UniProt P07225); experiment: Addition of C4BP to human plasma, free protein S measured with the assay of Example 2; format: binding; details: two-fold molar excess of C4BP compared to free protein S, 1 hour at 37° C.
T2 construct: from tissue; host or cells: human plasma
T2 sequence (P07225 42-676): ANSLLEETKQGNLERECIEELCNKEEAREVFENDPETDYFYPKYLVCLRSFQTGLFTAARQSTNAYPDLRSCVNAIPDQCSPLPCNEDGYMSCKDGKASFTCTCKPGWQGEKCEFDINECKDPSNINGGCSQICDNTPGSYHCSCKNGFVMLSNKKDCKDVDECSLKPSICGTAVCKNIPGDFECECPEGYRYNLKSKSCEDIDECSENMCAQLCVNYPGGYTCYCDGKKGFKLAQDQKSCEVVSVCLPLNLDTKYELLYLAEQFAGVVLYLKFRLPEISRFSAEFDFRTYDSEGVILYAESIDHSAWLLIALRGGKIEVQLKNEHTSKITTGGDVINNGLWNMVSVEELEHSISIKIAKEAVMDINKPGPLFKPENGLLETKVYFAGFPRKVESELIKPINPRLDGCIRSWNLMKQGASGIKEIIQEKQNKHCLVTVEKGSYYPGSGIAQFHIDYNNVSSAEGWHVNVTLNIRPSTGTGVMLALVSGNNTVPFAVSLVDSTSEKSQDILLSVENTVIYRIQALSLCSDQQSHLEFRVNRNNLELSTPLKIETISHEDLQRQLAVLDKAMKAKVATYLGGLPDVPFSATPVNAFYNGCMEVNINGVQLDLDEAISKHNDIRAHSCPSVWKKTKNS
Method: Assay procedure: Aliquots (50 μl) of the sample to be analyzed (for patient plasma usually 1:100 dilutions of plasma, the buffer for dilution being TBS containing 1% BSA, 2 mM calciumchloride and 1 mM benzamidine) were added to the wells of C4BP-microtiter plates and incubated at room temperature for 30 minutes. The wells were then washed with TBS-wash-ing buffer and biotinylated monoclonal antibody HPS54 (diluted 1:1000, corresponding to about 0.1–1 μg/ml, in TBS containing 1% BSA, 2 mM calcium chloride) was added. Unbound HPS54 was washed away with 3×TBS-washing buffer. Peroxidase-conjugated streptavidine (from Dakopatts AS and prepared according to the manufacturers instructions and diluted 1:2500) (50 μl/well) was added and incubated 15 minutes at room temperature before unbound complexes were washed away with 3×TBS-washing buffer. Aliquots (100 μl/well) of the peroxidase substrate OPD (1,2-ortho-phenylene diamine in the form of 2 mg tablets from Dakopatts A/S) at 1.5 mg/ml in 0.1 M citric acid-phosphate buffer, pH 5.0 (prepared according to instructions from Dakopatts) was added together with H2O2 (0.015%). After exactly 5 minutes, the reaction was stopped by 100 μl/well of 1 M H2SO4 and the absorbance was measured at 490 nm.
To test the specificity of the assay for free protein S, two different experiments were performed. […]

association rate constant ([1]; presence of calcium ions): ~10^5 M^−1 s−^1
dissociation rate constant ([1]; presence of calcium ions): approximately 5×10^−4 s−^1
Kd ([1]; presence of physiological calcium concentrations): 0.1 nM
drop in free protein S [2]: 90%
B1: C4BPβ: species of C4b-binding protein containing the protein S binding β-chain, isolated from human plasma (protein)
chain 1: NCGPPPTLSFAAPMDITLTETRFKTGTTLKYTCLPGYVRSHSTQTLTCNSDGEWVYNTFCIYKRCRHPGELRNGQVEIKTDLSFGSQIEFSCSEGFFLIGSTTSRCEVQDRGVGWSHPLPQCEIVKCKPPPDIRNGRHSGEENFYAYGFSVTYSCDPRFSLLGHASISCTVENETIGVWRPSPPTCEKITCRKPDVSHGEMVSGFGPIYNYKDTIVFKCQKGFVLRGSSVIHCDADSKWNPSPPACEPNSCINLPDIPHASWETYPRPTKEDVYVVGTVLRYRCHPGYKPTTDEPTTVICQKNLRWTPYQGCEALCCPEPKLNNGEITQHRKSRPANHCVYFYGDEISFSCHETSRFSAICQGDGTWSPRTPSCGDICNFPPKIAHGHYKQSSSYSFFKEEIIYECDKGYILVGQAKLSCSYSHWSAPAPQCKALCRKPELVNGRLSVDKDQYVEPENVTIQCDSGYGVVGPQSITCSGNRTWYPEVPKCEWETPEGCEQVLTGKRLMQCLPNPEDVKMALEVYKLSLEIEQLELQRDSARQSTLDKEL
chain 2: SDAEHCPELPPVDNSIFVAKEVEGQILGTYVCIKGYHLVGKKTLFCNASKEWDNTTTECRLGHCPDPVLVNGEFSSSGPVNVSDKITFMCNDHYILKGSNRSQCLEDHTWAPPFPICKSRDCDPPGNPVHGYFEGNNFTLGSTISYYCEDRYYLVGVQEQQCVDGEWSSALPVCKLIQEAPKPECEKALLAFQESKNLCEAMENFMQQLKESGMTMEELKYSLELKKAELKAKLL
